2 molecules from paper PMC4156911 can be followed below.

The target in data set [1] is T1, E. coli core RNA polymerase (wild-type) (Escherichia coli, UniProt P0A7Z4;P0A8V2;P0A8T7;P0A800 1-329;1-1342;1-1407;1-91). As to the kind of experiment: EMSA.
In data set [2] the target is T1, E. coli core RNA polymerase (wild-type). Description: EMSA. This is another data set of the same source.

Like-named read-outs stand apart in the source and are kept apart here.

T1 sequence (P0A7Z4 whole entry, chain 1 of 3): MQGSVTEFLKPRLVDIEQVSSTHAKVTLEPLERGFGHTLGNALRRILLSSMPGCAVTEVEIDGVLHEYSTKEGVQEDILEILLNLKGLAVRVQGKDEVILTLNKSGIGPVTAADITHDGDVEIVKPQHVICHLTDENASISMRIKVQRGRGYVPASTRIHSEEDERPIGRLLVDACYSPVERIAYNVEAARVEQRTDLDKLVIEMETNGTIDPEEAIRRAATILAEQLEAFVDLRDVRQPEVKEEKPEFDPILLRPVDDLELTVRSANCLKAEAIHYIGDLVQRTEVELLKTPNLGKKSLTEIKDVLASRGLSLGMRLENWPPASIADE
T1 sequence (P0A8V2 whole entry, chain 2 of 3): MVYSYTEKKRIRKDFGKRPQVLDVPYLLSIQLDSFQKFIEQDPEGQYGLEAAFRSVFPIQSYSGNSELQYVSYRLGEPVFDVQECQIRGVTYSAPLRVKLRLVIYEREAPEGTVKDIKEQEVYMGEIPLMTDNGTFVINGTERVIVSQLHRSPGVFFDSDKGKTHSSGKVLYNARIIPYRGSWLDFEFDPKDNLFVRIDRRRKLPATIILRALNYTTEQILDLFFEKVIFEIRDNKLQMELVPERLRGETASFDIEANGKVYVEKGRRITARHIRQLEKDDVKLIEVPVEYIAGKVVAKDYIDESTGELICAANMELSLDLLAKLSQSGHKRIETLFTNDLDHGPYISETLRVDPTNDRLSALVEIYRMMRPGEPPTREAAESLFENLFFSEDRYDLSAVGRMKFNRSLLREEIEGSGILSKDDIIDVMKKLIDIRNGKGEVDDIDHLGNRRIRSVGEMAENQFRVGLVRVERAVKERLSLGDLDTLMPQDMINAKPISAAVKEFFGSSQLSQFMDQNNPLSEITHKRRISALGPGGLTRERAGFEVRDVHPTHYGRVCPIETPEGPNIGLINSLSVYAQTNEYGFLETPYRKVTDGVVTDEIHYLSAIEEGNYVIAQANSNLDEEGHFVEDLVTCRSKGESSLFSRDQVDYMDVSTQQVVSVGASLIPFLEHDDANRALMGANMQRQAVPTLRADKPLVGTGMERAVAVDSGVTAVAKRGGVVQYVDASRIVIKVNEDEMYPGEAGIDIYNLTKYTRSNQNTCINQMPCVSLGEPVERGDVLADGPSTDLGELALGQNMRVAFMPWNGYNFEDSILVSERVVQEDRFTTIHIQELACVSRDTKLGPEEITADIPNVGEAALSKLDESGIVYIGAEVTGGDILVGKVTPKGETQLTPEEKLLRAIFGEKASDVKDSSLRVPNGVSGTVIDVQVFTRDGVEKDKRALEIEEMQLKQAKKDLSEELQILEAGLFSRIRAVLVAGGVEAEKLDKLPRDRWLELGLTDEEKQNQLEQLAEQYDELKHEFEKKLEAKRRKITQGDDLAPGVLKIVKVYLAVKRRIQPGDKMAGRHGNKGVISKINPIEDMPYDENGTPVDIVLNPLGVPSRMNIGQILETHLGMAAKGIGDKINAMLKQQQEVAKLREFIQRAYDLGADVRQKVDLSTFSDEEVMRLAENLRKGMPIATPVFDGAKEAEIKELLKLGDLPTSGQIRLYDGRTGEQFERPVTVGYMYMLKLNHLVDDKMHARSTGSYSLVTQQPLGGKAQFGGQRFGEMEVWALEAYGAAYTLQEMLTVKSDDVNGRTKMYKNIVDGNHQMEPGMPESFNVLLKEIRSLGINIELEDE
T1 sequence (P0A800 whole entry, chain 4 of 3): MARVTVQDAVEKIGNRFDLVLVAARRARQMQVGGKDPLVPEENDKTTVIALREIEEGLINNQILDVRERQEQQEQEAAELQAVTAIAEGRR

B1: his pause ePEC scaffold (RNA-7604, tDNA 5420, ntDNA 5069) (mixed)
RNA: UCAUCCGGCGAUGUGUGCU
DNA 1: CTCTGAATCTCTTCCAGCACACATCAGGACGTACTGACC
DNA 2: GGTCAGTACGTCCATTCGATCTTCGGAAGAGATTCAGAG
modifications: pyrrolo-cytosine at RNA nt 5 (Z in the printed sequence)
In the case of B1, in data set [1], the binding result is “binds”.

B2: his pause ePEC scaffold + 8mer asRNA (RNA-6598) (mixed)
RNA 1: UCAUCCGGCGAUGUGUGCU
DNA 1: B1 DNA 1
DNA 2: B1 DNA 2
RNA 2: CCGGAUGA
modifications: pyrrolo-cytosine at RNA nt 5 (Z in the printed sequence)
For B2, in data set [2], the binding result is reported as “binds”.
